Measured values reported in IntAct's records for PubMed 20691684.

B1: UBX domain-containing protein 2B (Mus musculus), Q0KL01 (parent)
chain: MAEGGRAEPEEQERGSSRPRPPSARDLQLALAELYEDEMKCKSSKPDRSTPATCRSPRTPPHRLYSGDHKYDGLHIVQPPTGKIVNELFKEAREHGAVPLNEATRSSREDKTKSFTGGGYRLGNSFYKRSEYIYGENQLQDVQVLLKLWRNGFSLDDGELRPYSDPTNAQFLESVKRGETPLELQRLVHGAQVNLDMEDHQDQEYIKPRLRFKAFSGEGQKLGSLTPEIVSTPSSPEEEDKSILNAAVLIDDSMPTTKIQIRLADGSRLVQRFNSTHRILDVRDFIVRSRPEFATTDFILVTSFPSKELTDETVTLQEADILNTVILQQLK
B2: NSFL1 cofactor p47 (Rattus norvegicus (Rat)), O35987 (parent)
chain: MAEERQDALREFVAVTGAEEDRARFFLESAGWDLQIALASFYEDGGDEDIVTISQATPSSVSRGTAPSDNRVTSFRDLIHDQDEEEEEEEGQRFYAGGSERSGQQIVGPPRKKSPNELVDDLFKGAKEHGAVAVERVTKSPGETSKPRPFAGGGYRLGAAPEEESAYVAGERRRHSGQDVHVVLKLWKTGFSLDNGDLRSYQDPSNAQFLESIRRGEVPAELRRLAHGGQVNLDMEDHRDEDFVKPKGAFKAFTGEGQKLGSTAPQVLNTSSPAQQAENEAKASSSILINEAEPTTNIQIRLADGGRLVQKFNHSHRISDIRLFIVDARPAMAATSFVLMTTFPNKELADENQTLKEANLLNAVIVQRLT

Variants of: B1
Conditions: with tera_rat Vcp
Target sequence in this assay (P46462 whole entry): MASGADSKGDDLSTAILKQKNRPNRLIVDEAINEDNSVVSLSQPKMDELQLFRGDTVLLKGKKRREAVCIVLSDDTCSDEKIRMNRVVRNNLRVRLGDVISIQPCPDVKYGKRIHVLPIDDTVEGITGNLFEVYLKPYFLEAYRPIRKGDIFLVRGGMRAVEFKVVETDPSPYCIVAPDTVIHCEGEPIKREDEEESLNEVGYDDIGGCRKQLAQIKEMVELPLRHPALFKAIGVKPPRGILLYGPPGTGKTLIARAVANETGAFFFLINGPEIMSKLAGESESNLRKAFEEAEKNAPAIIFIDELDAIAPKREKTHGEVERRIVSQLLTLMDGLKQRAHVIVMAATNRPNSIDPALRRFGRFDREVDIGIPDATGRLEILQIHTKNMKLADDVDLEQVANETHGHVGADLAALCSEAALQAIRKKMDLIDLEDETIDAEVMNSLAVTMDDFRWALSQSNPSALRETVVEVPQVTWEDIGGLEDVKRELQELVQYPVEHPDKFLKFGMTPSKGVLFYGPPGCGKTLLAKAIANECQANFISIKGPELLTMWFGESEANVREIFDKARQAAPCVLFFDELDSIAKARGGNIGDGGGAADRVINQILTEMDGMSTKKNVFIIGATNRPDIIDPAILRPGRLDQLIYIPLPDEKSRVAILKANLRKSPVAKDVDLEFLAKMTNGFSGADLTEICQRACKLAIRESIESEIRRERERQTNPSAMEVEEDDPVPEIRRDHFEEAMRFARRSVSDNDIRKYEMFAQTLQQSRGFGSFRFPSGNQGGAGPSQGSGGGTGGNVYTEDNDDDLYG

How did the “effect of a mutation on the interaction” value turn out when F215S was run?
Its value is “disrupting interaction”.

Variants of: B2
Conditions: with tera_rat Vcp
Target sequence in this assay (P46462 whole entry): as above

How did the “effect of a mutation on the interaction” value turn out when F253S was run?
Its value is “disrupting interaction”.

Variants of: B2
Conditions: with tera_mouse Vcp

With F253S as the variant, how does the “effect of a mutation on the interaction” value read?
Its value is “disrupting interaction”.
